Results reported in publication PMC4941522.

Experiments:
[1] = system: Sso10a2 (Sulfolobus solfataricus); experiment: EMSA; conditions: TPM buffer conditions; data not shown; EMSA: TPM buffer II (composition not in the material), 69 nM DNA, 10 min, ~23 °C, 1% agarose 0.5x TBE; TPM: 100 mM or 20 mM NaCl
[2] = system: Sso10a1 (Sulfolobus solfataricus); experiment: EMSA; conditions: TPM buffer conditions; data not shown; EMSA: TPM buffer II (composition not in the material), 69 nM DNA, 10 min, ~23 °C, 1% agarose 0.5x TBE; TPM: 100 mM or 20 mM NaCl

685 bp DNA substrate (TPM/EMSA)
Kd [1]: 1 nM | Kd [2]: 1 nM
